The target of the assay is neuronal receptor for agrin (mouse (endogenous in cortical neurons)). The assay is described as follows: immunostaining of cells or tissue.

For the substance “rC-Ag_(y4z8), soluble 95-kD COOH-terminal fragment of rat agrin (domain or fragment)”, the reduction of C-Ag20z8 labeling at a 1:1 molar ratio of C-Ag20z8 to rC-Ag (y4z8) stood at 30%.

For the origin of these results see article PMC2172957.
